Laboratory results from the DeepSol protein solubility set.

test: soluble on expression in E. coli; label from the status in PepcDB or PDB records

Sequence	soluble on expression in E. coli
MRAMYDLLKQKADVWDLFTRKKEYQPSKLDEHGRFFFTEEDLKNASSPEVSRYLVENGLKVEFPENKTFAVCLTHDMDDIYPPFSHSLLSSVSCLKSLDFRGLTAPFLWRFKGPEYSPYLNFSDIMDLEEGFGAKSSFYFLASREDPVRFRYDIEDLENLLGDISDRGWEAGLHGGYYSYDNLEALNNEKKSLEKVLGKKVLGFRNHYLRFKTPETWELLADAGFGYDSTFGYSELAGFRNGMCHPFKPYNLNKEREINILEIPLTVMDVALFKASSSFEEAWRCTKDLIDTAAGLNGVITLLWHNFVFGCSFRKDWIKLYEKALQYCSEKGAWITSGEEIYRWWENGAMAGDPLEHHHHHH	soluble
MEKMKNLDGKVALVTGASRGIGRAIAMRLANDGALVAIHYGRNKQAADETIREIESNEGKAFLIEADLNSIDGVKKLVEQLKNELQIRVGTSEIDILVNNAGIGTQGTIENTTEEIFDEIMAVNIKAPFFLIQQTLPLLRAEGRVINISSAEVRLGFTGSIAYGLSKGALNTMTLPLAKHLGERGITVNTIMPGYTKTDINAKLLDDPEIRNFAANSSVFGRIGQVEDIADAVAFLAASDSRWVTGQIIDVSGGFCL	not soluble
MHRPEAEKWLRRFERAPDARARLVCLPHAGGSASFFFPLAKALAPAVEVLAVQYPGRQDRRHEPPVDSIGGLTNRLLEVLRPFGDRPLALFGHAMGAIIGYELALRMPEAGLPAPVHLFASGRRAPSRYRDDDVRGASDERLVAELRKLGGSDAAMLADPELLAMVLPAIRSDYRAVETYRHEPGRRVDCPVTVFTGDHDPRVSVGEARAWEEHTTGPADLRVLPGGHFFLVDQAAPMIATMTEKLAGPALTGSTGGNSLEHHHHHH	soluble
MGHHHHHHSHMENKMESIEQQVEVLLEQEPQLLPAAMAERLGVTEFDVVAALPQEMVAISPGEQAQTILESLVGFGPVTTIVHSFGSIFEVKAPFPKGKVARGYYNLMGREGELHGHLKLDNVKNIALVSKPFMGRESHYFGFFSECGSNIFKVYLGRDEKRELIAEQVTAFRAMQAELNQ	soluble
MGSDKIHHHHHHMSDNEIVAGIMRDHIINLLKEGKRIDDRGFEDYRPIEIEVGIIEKAEGSALVKLGSTQVLVGIKTTLGEPFPDTPNMGVMTTNVELVPLASPTFEPGPPDERAIELARVTDRGIRESRALNLEKMVIVPGKIVRVVFIDVHVLDHDGNLMDAIGIASIAALLNAKVPKVEYNEETGEVEILEEKEPLPVERIPIPVTFAKIGNILVVDPSLEEELVMDGRLTVTTDETGHISAVQKGEGGAFKLEEVMYAVETAFKKAEEIRKIVLEAIKKSGE	not soluble
MHPSLRYIQGYPQNIVEQVSSLVDNGKLIPWFEKRYPDRHQIKSEKALYEYAIAIKNRYMKKASPISKVVYDKKIHAVNNALGLHSVISRNHGGKLKSKNEIRIANVFKDAPEALLRMLVVHELAHTREKNHDKAFYQLCCYMEPEYHQLELDARLFMIYLDLKANSNEEQLEHHHHHH	soluble
MSLDRILTFDCYGTLIDTKPVFDAISNIAKNNILNSKDAVNIYVNYEDRLMYGETYIPYDKLIKQVLEYCDMELVTNVFSKSYDEIISVHKRLKPFKEVVESLEKIHKKGYELALMSNSVHDIIDYNLDALGNVFNNVFLSEDIHAYKPQLKFFKYVEERLELKQKKHCHIAKGYWWDIVPCSKLGWRKIWVNRENKKGNKCHEPYEEVHTLDEVINLIEGHHHHHH	soluble
MGSDKIHHHHHHMKILFLADEESKMYWEYFKKEDFKGIDIIVSCGDLNPSYLSFLTTMVGVPLLYVHGNHDDKYNVKPPEGCICIEDEIYEYEGVRFLGLGGSNRYKPGENQYTQKEMTKRVKKLWWKLKRKNGFDVLVTHSPAKGLHDGEDTCHTGFDVFNRLIEQYKPRYFVHGHVHMSYGRQFVRLDKVGETTVINAYEKYIVEI	not soluble
SPQRKVANNKQNIEYNDDNHVHHMHSHNPPIDCAILLPSKPRFIFQDVTVFNFNVSGNPSDLNTPVVQFNLSFRNPNANIRIYYDTLDVYAFYGNGSQQIIIPTPMPSTYQGHKEDSVWSPYIPVVPYNALYLDDQHHSRDGNMLMLHLDGRISWLLLGN	soluble
MVSPILANIALNGIESIHRSKAKGQIIEPSVRYADDMVIILKPKDNAIEILERISEFLRKRGMQVSQKKTKITAATDGFDFLGWHFKVQKNGKFKSTPSVDNFKAFRKKVKHIVNNSNYGSIVKAQKLSPIVRGWRNYHKFCKMDGSKHSLWFLNHRTYTVFTKESKHTRQSSEKLIKKAFPLVPNSENKHVMVQGIKSPYDGNLTCWSKRNSKLYDGHTSKALTKQNHKCASCGLKFIGEERVHLHHRDGNHDNWKPNNLEALHESCHDYRHMSKTERLEHHHHHH	not soluble
MYSCTSPSGIKVSLSTPEIWEEFYPKTEMIVTRNRGRVIFPHLDYIIKGLDPGSLYSIYIHLERVDGIKYKFDAGEWKEFAKGDPILPIQYKEHPRGKRTGAEWMSEPVSFAHIKITNNPEIKDQKVILVQSMHKHIPVVTVKQVRHYKTGYQEDFSGEQFRLEATEFMVVTAYQNEILKNLKVHHNKFASGFRSNGKRRLSSDSENSENSPPKRSKLVTPPTISPQIDLPQQTPYYFNQNFVAPQNYQPQFASAQNYNFEVQNNAQLAWNMYYQKQYEFWWQQQQMMMPGQPQELKNEFQSL	not soluble
MKKIISLALALALSASAAELKMATTTSTDNTGLLDALKPLYEKESGNTLKWVAVGTGAALKMGEDCNADVLFVHSPKAEKEFMKKGFGVDRTPVMYNDFIIIADKSLASKFKGKNLKESLELIKNEKLTFISRGDKSGTDNKEKSLWKNLGGVPEKQSWYQQSGQGMLASIKIAEEKKGVILTDRGTYIKYEANEKGKPNLVIVNEGDDSLKNFYSVIATNPKHCKNVNYTEASKFIKWVTSDKTLNFIADFKLLNKPLFVIDAKTRKD	not soluble
MGSDKIHHHHHHVTIEIRQLRYALMSADLRSFSGAASRLNVKQATLSRSVLQLEDRLGIKLFERTTRGAEPTETGKVFLETARRIITDLENLQTTARAVSYGEQGRFAVGYCSSLMAGHLKAAFSDYLTRFPDVQFDGVEGDPDKLCSDLRAGTIDVAIAPLGSEEQGIASRPVWSERLVAALYPEHPLLEASRIYWGDLRREIFVVPRKGIGQMIRNMITARLTGQGYRPNIITQETSLESVLSMVPVGRFITIATEASMGVAWPELQFRDIYDNGGTARIDFALYWREDNENPALQRFFTMINERYPA	not soluble
TTCDELISLCDEHHMSVADVVWANETAMRSAVQVRSDLDTVWHVMRRCVQHGCNTNQTVLPGGLDVPRRAPKMYARLASNSDVLKRDGRRSDAVLESSDAAWVDLFALAVSEENAAGGRIVTAPTNGAAGVIPAVLHYYWHFVDHADEDGVVTFLLTAGAIGYLFKRNASISGAEVGCQGEVGTACSMAAAGLCAVMGGTPHQVENAAEIGIEHNLGLTCDPVGGLVQIPCIERNAMAANTAINAVRMAMLGDGTHIVSLDQAIKTMKDTGEDMMAKYKETSKGGLAVN	not soluble
MGSDKIHHHHHHAEAGVFSDVPTSHWSYPAIKDLAGKNIISGYGNGKFGFGDVATREQVAALIYRALLPNKQGGTFSNDGARYVLQDGSTLNNPYRDIRSGSTLFPEEVLTLTKLGVFNGDGNGGFRPKDSVSRAEMAQIIKNAFQVSAKQKHTFNDVPDGFWAEGAISAVQSNGIASGTGDGKFEPAKTVTREQYAQFLYNALQYKKPAVAVQDTGDAALLAAFKDEVQKRINAYETNITLPYKTTNSNTKEVMNTLFNAYKEVASKNEYTNNNRSNVSYGLSGSPGNYTFTLKITYRETKEQTEYVMKQAKAIVSSITQVGMDDHEKVKAIHDYVVKHVSYDTSYKAYTAYEALVNRSAVCQGYALLTYQLLKEAGIENHFVVGTGDGQPHAWNLVKIENKWYHLDTTFDDPVPDEQGRVTYSYFNLSDEQIARNHEWNRGDYPQATTNYYSTLTNKIAAGGTKTSAYQQILKDTKLNYLGNEYIANNYNEFKNKMQQRYNEKSPKIEILYKQSMDGALQDVKKAIGEIGYPQGANRVSYKAEPYNAKEGYSLVTITFM	not soluble
MQVDADLRPILGPQLVRLDPMRVKQLQDPIVYEAIDNLAKLSAHCLQLRTPLTTCEKLINSDSTLYLSWKYDEEEKVSRLMGFAKVGRKKLFLYDSQMQTYEGEILCLLDFYVHFSCQRQGVGQQILDYMFSQEHTEPYQLALDNPSVTLLGFMSQKYGLIKPVWQNTNFVVFEELFLALSAENGIEKPPPDGWRRPMTPRRLGTGMTDTRWLQHAVSGHQSKGNAMAAPVDADMTPQGALSNRAHQAKARKAHILSSKPLW	soluble
